Target: NNN-GFPglyc (GnTI CTS region fused to the glycosylation reporter GFPglyc) (Nicotiana tabacum (legend of Figure 1 and methods); the running text says N. benthamiana)
Assay: FRET or BRET; two-photon FRET-FLIM in living N. benthamiana leaf epidermal cells, Golgi bodies, leaves treated with 25 uM latrunculin B; donor NNN-GFPglyc, acceptor CTS-mRFP; a decrease of the donor lifetime by 0.20 ns or 8% taken as interaction

Substance	FRET efficiency E [%]	donor lifetime with acceptor (tau DA) [ns]	lifetime contrast (delta tau) [ns]
NNN-mRFP (GnTI CTS region fused to mRFP) (domain or fragment)	14.6	2.08	0.36
RNN-mRFP (chimeric CTS region: ST cytoplasmic tail, GnTI transmembrane domain and stem, fused to mRFP) (from UniProt P13721 1-9)	10.8	2.18	0.26

From article PMC4282539
